This passage reports binding result and Kd results from article PMC3553976 (Nucleic Acids Research, 2012).

B1: His6-tagged SF1^2-320 (domain or fragment, human, UniProt Q15637 2-320, looked up)
chain: ATGANATPLDFPSKKRKRSRWNQDTMEQKTVIPGMPTVIPPGLTREQERAYIVQLQIEDLTRKLRTGDLGIPPNPEDRSPSPEPIYNSEGKRLNTREFRTRKKLEEERHNLITEMVALNPDFKPPADYKPPATRVSDKVMIPQDEYPEINFVGLLIGPRGNTLKNIEKECNAKIMIRGKGSVKEGKVGRKDGQMLPGEDEPLHALVTANTMENVKKAVEQIRNILKQGIETPEDQNDLRKMQLRELARLNGTLREDDNRILRPWQSSETRSITNTTVCTKCGGAGHIASDCKFQRPGDPQSAQDKARMDKEYLSLMAEL
B2: U2AF65^UHM, C-terminal U2AF homology motif domain of U2AF65 (residues 372–475) (domain or fragment)
chain: GHPTEVLCLMNMVLPEELLDDEEYEEIVEDVRDECSKYGLVKSIEIPRPVDGVEVPGCGKIFVEFTSVFDCQKAMQGLTGRKFANRVVVTKYCDPDSYHRRDFW
B3: SF1-Δα2, SF1^2-320 with helix α2 deleted (Δ96–128) (domain or fragment, human)
chain: ATGANATPLDFPSKKRKRSRWNQDTMEQKTVIPGMPTVIPPGLTREQERAYIVQLQIEDLTRKLRTGDLGIPPNPEDRSPSPEPIYNSEGKRLNGTYKPPATRVSDKVMIPQDEYPEINFVGLLIGPRGNTLKNIEKECNAKIMIRGKGSVKEGKVGRKDGQMLPGEDEPLHALVTANTMENVKKAVEQIRNILKQGIETPEDQNDLRKMQLRELARLNGTLREDDNRILRPWQSSETRSITNTTVCTKCGGAGHIASDCKFQRPGDPQSAQDKARMDKEYLSLMAEL
B4: SF1^2-320 with the α1–α2 linker deleted (Δ75–90) (domain or fragment, human)
chain: ATGANATPLDFPSKKRKRSRWNQDTMEQKTVIPGMPTVIPPGLTREQERAYIVQLQIEDLTRKLRTGDLGIPPGTGKRLNTREFRTRKKLEEERHNLITEMVALNPDFKPPADYKPPATRVSDKVMIPQDEYPEINFVGLLIGPRGNTLKNIEKECNAKIMIRGKGSVKEGKVGRKDGQMLPGEDEPLHALVTANTMENVKKAVEQIRNILKQGIETPEDQNDLRKMQLRELARLNGTLREDDNRILRPWQSSETRSITNTTVCTKCGGAGHIASDCKFQRPGDPQSAQDKARMDKEYLSLMAEL
B5: SF1^ULM (residues 1–25) (peptide, UniProt Q15637 1-25, looked up)
chain: MATGANATPLDFPSKKRKRSRWNQD
B6: SF1 (residues 1–260) (domain or fragment, human, UniProt Q15637 1-260, looked up)
chain: MATGANATPLDFPSKKRKRSRWNQDTMEQKTVIPGMPTVIPPGLTREQERAYIVQLQIEDLTRKLRTGDLGIPPNPEDRSPSPEPIYNSEGKRLNTREFRTRKKLEEERHNLITEMVALNPDFKPPADYKPPATRVSDKVMIPQDEYPEINFVGLLIGPRGNTLKNIEKECNAKIMIRGKGSVKEGKVGRKDGQMLPGEDEPLHALVTANTMENVKKAVEQIRNILKQGIETPEDQNDLRKMQLRELARLNGTLREDDNR
B7: pSF1, phosphorylated SF1 (residues 1–260) (domain or fragment)
chain: B6 chain
modifications: phosphoserine at 80 and 82
B8: SF1^2-320 with helix α1 deleted (Δ35–68) (domain or fragment, human)
chain: ATGANATPLDFPSKKRKRSRWNQDTMEQKTVIPGTDLGIPPNPEDRSPSPEPIYNSEGKRLNTREFRTRKKLEEERHNLITEMVALNPDFKPPADYKPPATRVSDKVMIPQDEYPEINFVGLLIGPRGNTLKNIEKECNAKIMIRGKGSVKEGKVGRKDGQMLPGEDEPLHALVTANTMENVKKAVEQIRNILKQGIETPEDQNDLRKMQLRELARLNGTLREDDNRILRPWQSSETRSITNTTVCTKCGGAGHIASDCKFQRPGDPQSAQDKARMDKEYLSLMAEL

Experiment [1] addresses T1, U2AF65^RRM123 (residues 147–475) (human, UniProt P26368 147-475). The experiment is described as follows: native gel or EMSA. (In EMSA bound probe runs differently from free probe, usually more slowly.)
Target sequence in this assay (P26368 147-475, one chain of several): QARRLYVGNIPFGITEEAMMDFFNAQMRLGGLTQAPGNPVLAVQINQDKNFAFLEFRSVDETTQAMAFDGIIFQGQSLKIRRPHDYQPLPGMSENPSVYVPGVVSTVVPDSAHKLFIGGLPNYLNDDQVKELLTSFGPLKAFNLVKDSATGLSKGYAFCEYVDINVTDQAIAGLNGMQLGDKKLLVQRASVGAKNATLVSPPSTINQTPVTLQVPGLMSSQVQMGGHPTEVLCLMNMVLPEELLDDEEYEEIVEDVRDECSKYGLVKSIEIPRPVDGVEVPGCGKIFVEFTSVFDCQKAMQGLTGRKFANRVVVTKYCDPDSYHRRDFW
Experiment [2] concerns the target T2, SF1^NTD (residues 1–145) (human, UniProt Q15637 1-145). The experiment is described as follows: ITC. (In general: ITC needs no label: the signal is the heat of the interaction.)
Experiment [3] deals with T3, SF1^HH (residues 27–145) (human, UniProt Q15637 27-145).
T3 sequence: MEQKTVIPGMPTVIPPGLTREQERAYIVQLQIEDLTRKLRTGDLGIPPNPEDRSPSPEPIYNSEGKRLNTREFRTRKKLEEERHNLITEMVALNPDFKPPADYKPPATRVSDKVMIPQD
The experiment is described as follows: ITC.

The target of experiment [4] is T2, SF1^NTD (residues 1–145). The experiment is described as follows: ITC. This is another data set of the same source.
The target of experiment [5] is B2. The experiment is described as follows: ITC.
The target of experiment [6] is T1, U2AF65^RRM123 (residues 147–475). The experiment is described as follows: ITC.

Like-named read-outs stand apart in the source and are kept apart here.

For the molecule B1, the binding result in experiment [1] was “binds”.
By Kd is commonly meant the free concentration of one partner at which half of the binding sites on the other are occupied at equilibrium, for simple one-to-one binding. As for B2, the Kd was 85 nM in experiment [2], over 100000 nM in experiment [3] and 84 ± 23 nM in experiment [4].
As to B3, the binding result in experiment [1] is “binds”.
As for B4, the binding result in experiment [1] is “binds”.
B5 yielded an equilibrium dissociation constant (Kd) in experiment [5] of 127 ± 48 nM.
B6 yielded a Kd in experiment [6] of 114 ± 23 nM.
Same read-out and setting: with B7 the figure was 96 ± 32 nM.
On to B8, for which, in experiment [1], the binding result is “binds”.
